Source: article PMC2133028
No end group written: not given here.

Molecular target: GST-hCASK PDZ fusion protein (residues 489-572) (human)
Assay: pull-down

IC50: 40 to 70 µM
Binder: APTKEFYA-OH [COOH-terminal syndecan-2 peptide (APTKEFYA-COOH)]
